Series [1] has as its target T1, DdrD (Deinococcus radiodurans R1 (ATCC 13939), UniProt Q9RXI7 1-198).
T1 sequence: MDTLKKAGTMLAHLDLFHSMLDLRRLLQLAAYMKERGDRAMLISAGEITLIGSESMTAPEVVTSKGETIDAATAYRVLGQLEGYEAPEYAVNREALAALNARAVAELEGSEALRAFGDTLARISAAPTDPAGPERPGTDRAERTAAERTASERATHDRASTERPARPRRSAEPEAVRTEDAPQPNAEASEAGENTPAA
The series is described as follows: EMSA; 5 mM Mg2+; DdrD up to 8 uM; not completely shifted at highest concentration; proteinase K releases DNA; EMSA: 40 mM Tris-HCl pH 7.8, 5 mM MgCl2, 1.5 mM DTT, 50 mM NaCl, 2.5% glycerol, 3.3 nM DNA, 15 min at 4 C; 6% native PAGE in 0.25X TBE with 10% glycerol. The note with it: protein: recombinant; tags: none (untagged; native stop codon in reverse primer, pET21a NdeI/EcoRI); label: 5' Cy5. (In general: In EMSA bound probe runs differently from free probe, usually more slowly.)

The target of series [2] is T1, DdrD. The series is described as follows: EMSA; 5 mM Mg2+; same DdrD concentrations as oligo 1; EMSA: 40 mM Tris-HCl pH 7.8, 5 mM MgCl2, 1.5 mM DTT, 50 mM NaCl, 2.5% glycerol, 3.3 nM DNA, 15 min at 4 C; 6% native PAGE in 0.25X TBE with 10% glycerol. The conditions noted are these: protein: recombinant; tags: none (untagged; native stop codon in reverse primer, pET21a NdeI/EcoRI); label: 5' Cy5 on strand 1; blunt.

B1: oligo 1 (67-mer ssDNA) (ssDNA)
DNA: CTGTTTAAGAAATTCACCTCGAAAGCAAGCTGATAAACCGATACAATTAAAGGCTCCTTTTGGAGCC
In the case of B1, in the series with DdrD [1], the binding result is on record as “binds”.

B2: oligo 2 (67-mer dsDNA) (dsDNA)
DNA 1: B1 DNA
DNA 2: GGCTCCAAAAGGAGCCTTTAATTGTATCGGTTTATCAGCTTGCTTTCGAGGTGAATTTCTTAAACAG
As to B2, the binding result with DdrD [2] is listed as “no binding”.

(Values after PMC8254717, “Characterization of the DdrD protein from the extremely radioresistant bacterium Deinococcus radiodurans”.)
